Results from PMC11480323.

Target: Cas7 of the type I-F Cas8-HNH system from Selenomonas sp. isolate RGIG9219 (Selenomonas sp. isolate RGIG9219)
Assay: cryo-EM structure; Cas8-HNH Cascade-crRNA ribonucleoprotein complex in the target-free state, 3.6 Å; subunits co-expressed in E. coli with crRNA and purified as one complex

- stoichiometry N: 6
Substance: Cas7 of the type I-F Cas8-HNH system from Selenomonas sp. isolate RGIG9219 (natural protein)
